In the supplement of paper PMC12042874:
± gives the uncertainty stated by the source.

Experiment: amyloid nucleation score (Sup35N fusion, yeast selection) (log enrichment); library NNK3; higher = more nucleation; inactive = no reads after selection
Procedure, shortened: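 Sup35N fusions to peptides of 20 random codons were expressed in psi-negative yeast, induced 24 hours with 100 μM copper sulfate, and grown 7 days at 30°C on medium lacking adenine and uracil. Input and output plasmid inserts were sequenced by Illumina. The nucleation score is the DiMSum log enrichment of output over input reads, centred on the mode score of non-aggregating sequences. Sequences with under 100 input reads were excluded.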

FNATCVVGHQVSVCNPWDAH
amyloid nucleation score: inactive

FNFLVWAQ
amyloid nucleation score: inactive

FNGICRWTCYSCS
amyloid nucleation score: 2.09 ± 0.08

FNGMACVFRISFVALRLQGG
amyloid nucleation score: -0.892 ± 1.7

FNISIRVDIVISICNNVVFN
amyloid nucleation score: 0.596 ± 0.19

FNKLEVRNRQEWLSGRFWDH
amyloid nucleation score: -0.091 ± 0.36

FNKVRWSRVTGTFWKVLIRV
amyloid nucleation score: inactive

FNMFVKNN
amyloid nucleation score: inactive

FNNFSYCHTDARVWVMATVM
amyloid nucleation score: inactive

FNSYKGNVSFAGW
amyloid nucleation score: -0.155 ± 1.4

FNTRQSNLKDDMVSFHDSDL
amyloid nucleation score: inactive

FPFLSSSSDSSEMFILKLFD
amyloid nucleation score: inactive

FPICWLRVVDLALFKWMYNF
amyloid nucleation score: inactive

FPIWLLDCKEDCVLSDVAAS
amyloid nucleation score: inactive

FPRVTVPLVFSSIQESTSSE
amyloid nucleation score: inactive

FPSIFCPCFLTIYMFGWIVS
amyloid nucleation score: inactive

FPVARAIATMGWHIGALFLN
amyloid nucleation score: inactive

FPWYAIFSHSMLCVDIQDF
amyloid nucleation score: 0.958 ± 0.2

FPYSKIRCLCDGRNDRLGGL
amyloid nucleation score: -0.043 ± 0.67

FQIKT
amyloid nucleation score: 0.041 ± 0.81

FQKQLASRCTSWSWTRWLVQ
amyloid nucleation score: inactive

FQSHLNIVIVYIRLNYTVLL
amyloid nucleation score: -0.394 ± 0.63

FRCFYGTRSWRKECGESAFL
amyloid nucleation score: inactive

FRDVPGLLCR
amyloid nucleation score: inactive

FRGFIAVDAVGMVTNYIIKY
amyloid nucleation score: 1.89 ± 0.062

FRIIQVVRYDMMGTRLDMYQ
amyloid nucleation score: 0.938 ± 0.19

FRLRYRYFCRGRGCMDDLEY
amyloid nucleation score: -0.288 ± 0.8

FRLYFYYYSNLFRHFCYNKS
amyloid nucleation score: inactive

FRNCRSWATCTAKARLHCPS
amyloid nucleation score: 0.812 ± 0.16

FRSNGSIWVRGSETFTIAP
amyloid nucleation score: inactive

FRSTCTFHCMERSRLRISPK
amyloid nucleation score: inactive

FRVAAMAISGTISCQYFQGL
amyloid nucleation score: 0.739 ± 0.17

FRWHLCRFCWKRIFASTMLA
amyloid nucleation score: inactive

FRWNNCGSMVRISTPSYSFL
amyloid nucleation score: inactive

FRYEILTI
amyloid nucleation score: 0.912 ± 0.12

FSALQWGSRTYIFVYSGNMS
amyloid nucleation score: 0.658 ± 0.24

FSAMTPSGRWHDRSRSDVIN
amyloid nucleation score: inactive

FSCDIMRPTKLGYSFDGLLL
amyloid nucleation score: inactive

FSCIMVRCYFR
amyloid nucleation score: inactive

FSCPDLGRGYVIS
amyloid nucleation score: inactive

FSCSYTMGQCEASCVWQLKY
amyloid nucleation score: 0.36 ± 0.35

FSFCIGRMCDLQALTASCLN
amyloid nucleation score: inactive

FSGTIGILFFMTWSTVLPWG
amyloid nucleation score: inactive

FSHGFSIYRLKKT
amyloid nucleation score: inactive

FSIAMFQANSGYASR
amyloid nucleation score: 1.25 ± 0.14

FSIIKFYWAEYWARRGEIVR
amyloid nucleation score: inactive

FSKVTFHSCGIQCERQVKNN
amyloid nucleation score: inactive

FSLRLPYFA
amyloid nucleation score: inactive

FSLRNICSGLWILSVIAFPI
amyloid nucleation score: inactive

FSNSRDSILWHRFGRICASY
amyloid nucleation score: 1.58 ± 0.12

FSPRKSLASLGITVVVDHCI
amyloid nucleation score: -0.057 ± 0.81

FSRFIRQ
amyloid nucleation score: 0.677 ± 0.15

FSRSTTDVSINSGWKM
amyloid nucleation score: inactive

FSSIMSFVVYSRKLLEVTSP
amyloid nucleation score: inactive

FSSLGANYNHEILKGCGVGS
amyloid nucleation score: inactive

FSSMF
amyloid nucleation score: inactive

FSSMVNVYSLLKVFF
amyloid nucleation score: inactive

FSVANGHRVM
amyloid nucleation score: inactive

FSVQAIWFVMSLNRFLGKGR
amyloid nucleation score: inactive

FSVRIKYI
amyloid nucleation score: inactive

FSVSDSFP
amyloid nucleation score: inactive

FSWSLSLLHIPYKQWRGRWV
amyloid nucleation score: inactive

FTAFMFS
amyloid nucleation score: inactive

FTCPASST
amyloid nucleation score: inactive

FTMSMYKGFRRCA
amyloid nucleation score: inactive

FTNFDNFSFYASWLCG
amyloid nucleation score: inactive

FTNISVNNAVFVFVVCTAV
amyloid nucleation score: 2.52 ± 0.054

FTRSLETYYFGKNDVWFSLS
amyloid nucleation score: inactive

FTRWIWFIVITSASCFKSFH
amyloid nucleation score: inactive

FTSLLAVYSIPLQWGATT
amyloid nucleation score: inactive

FTSQYIYDAIRRLRKMSIMS
amyloid nucleation score: inactive

FTWARETVPVVQNWFGTREV
amyloid nucleation score: inactive

FTWSVHKVDEVCHLLETGDA
amyloid nucleation score: inactive

FTWYRR
amyloid nucleation score: inactive

FTYDCECALICINYT
amyloid nucleation score: 0.448 ± 0.27

FVCLKNFIFNRYKADGD
amyloid nucleation score: 1.17 ± 0.19

FVCLT
amyloid nucleation score: 1.32 ± 0.13

FVESSDLMRMSWFWWTGWDL
amyloid nucleation score: inactive

FVGRFCMFNLGRCLPIVLGS
amyloid nucleation score: inactive

FVKSVRYSL
amyloid nucleation score: 1.45 ± 0.064

FVLESFCRPLHSWVAGMGV
amyloid nucleation score: inactive

FVLFAYWHARPNTISRGCDH
amyloid nucleation score: inactive

FVMFAKASRGCTVSLCVYDV
amyloid nucleation score: -0.37 ± 0.39

FVQGYSFWYWVETYMFIRFV
amyloid nucleation score: inactive

FVRANYIWWNSWYLECYIGR
amyloid nucleation score: inactive

FVRPFGRVFIFQKDFSIKVC
amyloid nucleation score: inactive

FVRTLCCLAYVWHYDLRYC
amyloid nucleation score: 0.406 ± 0.31

FVSKHRVSTIWRVISHMRGG
amyloid nucleation score: -0.257 ± 0.98

FVSLLWLRGDVVHALFIQWM
amyloid nucleation score: inactive

FVTRHLNFCM
amyloid nucleation score: inactive

FVTYCVRQETV
amyloid nucleation score: 0.578 ± 0.15

FVVGHENNFLKFANSLSRL
amyloid nucleation score: inactive

FVWLWVVISLNCSNNEFVFN
amyloid nucleation score: 2.51 ± 0.061

FVYFKLGVMSPLQTTNTHLS
amyloid nucleation score: 0.804 ± 0.11

FVYYANYQYFRPFYKMSWHQ
amyloid nucleation score: 1.51 ± 0.078

FWMMDYMYSVRMNFVWGYIR
amyloid nucleation score: inactive

FWNEVMNRLPGLL
amyloid nucleation score: inactive

FWNSFHFVNNYWHVY
amyloid nucleation score: inactive

FWSFRPGHITLSIGHTRIAG
amyloid nucleation score: inactive

FWTGVACNTAGCCLGYESLR
amyloid nucleation score: inactive

FWWVKC
amyloid nucleation score: inactive

FYKLRHQVRTKISERYLPDS
amyloid nucleation score: inactive

FYLYPDVERLNFCIMVRHMF
amyloid nucleation score: inactive

FYMWFMRTGLTKYPNGAIKV
amyloid nucleation score: inactive

FYMYLTSVCA
amyloid nucleation score: inactive

FYNFWWCI
amyloid nucleation score: 1.87 ± 0.064

FYPLICQRLKRSNIPGVWP
amyloid nucleation score: inactive

FYRAYSDYFWKTMFSYLGTS
amyloid nucleation score: -0.619 ± 0.93

FYRFFDSV
amyloid nucleation score: inactive

FYRFISAMFYDWDSWIICGN
amyloid nucleation score: 0.674 ± 0.12

FYSAISVAAYIEMTWESVDM
amyloid nucleation score: inactive

FYSFFILSIGSSIPCLRSHM
amyloid nucleation score: inactive

FYTIGWGWNQKCGIFRHMVR
amyloid nucleation score: inactive

FYVRVALRVSLLLWSGFTWV
amyloid nucleation score: inactive

GADVSSHVKIFINYNLFSFI
amyloid nucleation score: 2.55 ± 0.076

GAFRTFYMLMWSYLCISGSV
amyloid nucleation score: inactive

GAIRLRSVNSNLGWLTAPLR
amyloid nucleation score: inactive

GAMLRVGV
amyloid nucleation score: inactive

GANFVCSVECRLVRRNSRYD
amyloid nucleation score: 0.511 ± 0.21

GARLAVW
amyloid nucleation score: inactive

GAVWFIRRRPKDRIRRVSLW
amyloid nucleation score: inactive

GAWVTATWAFDAVLFCPGKM
amyloid nucleation score: inactive

GCFIGDVRMSMSCSKFLCIE
amyloid nucleation score: 0.381 ± 0.15

GCKMVGRICSDIICSVGVME
amyloid nucleation score: 0.988 ± 0.16

GCKTREVLLYWLIMRPGGYS
amyloid nucleation score: inactive

GCLRDPTVAQVDYLGYGVRL
amyloid nucleation score: inactive

GCRYQGHCHVYYLAERIACD
amyloid nucleation score: inactive

GCSLGTHSVTLTFM
amyloid nucleation score: inactive

GCSSVRAGH
amyloid nucleation score: inactive

GCTCQ
amyloid nucleation score: 1.21 ± 0.15

GCTDIHASEH
amyloid nucleation score: inactive

GCVLCGIPSAWRSPGASSDA
amyloid nucleation score: 1.05 ± 0.2

GDCFWSPDKNWIALEVFQTF
amyloid nucleation score: inactive

GDDIEILSFEVWRVFSKSWS
amyloid nucleation score: inactive

GDDSSRHFNEFLYNRFAALW
amyloid nucleation score: inactive

GDLKLGLVIYESCGSMVMSW
amyloid nucleation score: inactive

GDNRFLYELFLPHLNVVSNL
amyloid nucleation score: inactive

GDRRER
amyloid nucleation score: 0.811 ± 0.16

GDTHHCAADGV
amyloid nucleation score: 0.504 ± 0.24

GDTVLVILSILSVGCC
amyloid nucleation score: 1.2 ± 0.15

GDVRLFTCRMLGILFFSIT
amyloid nucleation score: inactive

GELPLRVKVKSFHTDTSLRK
amyloid nucleation score: 0.614 ± 0.29

GERTVLVKGLMRCIWVPVIW
amyloid nucleation score: inactive

GFESPRGFSSVFSIVYGFWA
amyloid nucleation score: 0.855 ± 0.2

GFGGFGRVDNSLCIKAPCCV
amyloid nucleation score: 0.127 ± 0.29

GFGGSSAHDRGYETRKSSLE
amyloid nucleation score: inactive

GFHTI
amyloid nucleation score: -0.223 ± 0.73

GFLSGVKVLNGGEDNDTLPE
amyloid nucleation score: inactive

GFSTYRIKIVYDVNMY
amyloid nucleation score: inactive

GFYLVVKTINGFPNNLKWMA
amyloid nucleation score: 0.296 ± 0.21

GFYRLVVQGLVVSRGLNWCV
amyloid nucleation score: inactive

GFYVLMISVTLMDSQTPLR
amyloid nucleation score: 1.65 ± 0.11

GGALAKNHILCR
amyloid nucleation score: inactive

GGCHNGCGFYCRRN
amyloid nucleation score: inactive

GGHLLGHIASVFMEFCALQC
amyloid nucleation score: inactive

GGKMMFFKIRFFC
amyloid nucleation score: inactive

GGNICPIRPLSRKEWELGRH
amyloid nucleation score: -0.566 ± 1.4

GGQVRDCDNVEQCSATNSEG
amyloid nucleation score: inactive

GGSCTDSVVIEGI
amyloid nucleation score: 0.252 ± 0.24
